Patent US10344077 (DUKE UNIVERSITY, dated 2019)

What was measured:
Scl-70 [1] = biological target: T1, Scl-70 (UniProt P11387 2-765); assay: AtheNA, Ab 50 ug/ml
T1 sequence (looked up): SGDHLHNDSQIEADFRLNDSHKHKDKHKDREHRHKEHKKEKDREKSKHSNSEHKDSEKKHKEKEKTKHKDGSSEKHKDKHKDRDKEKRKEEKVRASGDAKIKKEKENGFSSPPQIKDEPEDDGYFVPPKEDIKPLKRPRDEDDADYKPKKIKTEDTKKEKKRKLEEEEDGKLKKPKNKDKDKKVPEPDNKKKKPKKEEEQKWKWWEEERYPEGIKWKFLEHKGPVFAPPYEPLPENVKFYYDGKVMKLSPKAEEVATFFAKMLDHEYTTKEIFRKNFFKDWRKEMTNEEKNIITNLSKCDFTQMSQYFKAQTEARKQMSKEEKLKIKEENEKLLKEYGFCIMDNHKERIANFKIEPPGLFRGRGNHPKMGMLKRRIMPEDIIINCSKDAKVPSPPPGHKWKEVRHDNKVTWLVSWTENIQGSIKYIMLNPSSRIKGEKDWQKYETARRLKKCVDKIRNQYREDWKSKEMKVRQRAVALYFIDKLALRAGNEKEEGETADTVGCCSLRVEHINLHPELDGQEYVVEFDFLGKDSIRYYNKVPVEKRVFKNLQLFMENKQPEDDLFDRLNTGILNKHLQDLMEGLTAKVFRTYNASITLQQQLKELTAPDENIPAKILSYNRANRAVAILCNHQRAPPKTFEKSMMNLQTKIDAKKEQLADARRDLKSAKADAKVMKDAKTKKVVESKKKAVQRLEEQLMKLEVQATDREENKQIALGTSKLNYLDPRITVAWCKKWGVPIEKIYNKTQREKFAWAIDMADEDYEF
Excerpt: (§1) AtheNA Multi-Lyte ANA Plus Test System is one such assay. This is luminex-based assay, which is also used to screen patient sera.

Sm (Smith antigen) [2] = assay: AtheNA, Ab 50 ug/ml
Excerpt: as §1

Jo-1 [3] = biological target: T2, Jo-1 (UniProt P12081 2-509); assay: AtheNA, Ab 50 ug/ml
T2 sequence (looked up): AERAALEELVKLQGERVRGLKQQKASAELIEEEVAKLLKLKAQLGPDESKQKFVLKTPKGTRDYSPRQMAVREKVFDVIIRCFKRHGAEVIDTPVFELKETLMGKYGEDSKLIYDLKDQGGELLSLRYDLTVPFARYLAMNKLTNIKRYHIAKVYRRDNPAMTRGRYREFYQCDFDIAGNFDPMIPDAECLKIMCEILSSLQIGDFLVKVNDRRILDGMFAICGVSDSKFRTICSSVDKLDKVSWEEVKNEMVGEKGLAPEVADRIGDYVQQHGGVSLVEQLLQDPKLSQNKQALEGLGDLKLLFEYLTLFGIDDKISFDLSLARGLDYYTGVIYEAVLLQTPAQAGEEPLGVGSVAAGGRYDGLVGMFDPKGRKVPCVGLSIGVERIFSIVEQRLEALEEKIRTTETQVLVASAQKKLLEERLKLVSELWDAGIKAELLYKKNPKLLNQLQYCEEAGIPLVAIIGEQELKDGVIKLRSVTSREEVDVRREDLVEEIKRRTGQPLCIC
Excerpt: as §1

SSA [4] = assay: AtheNA, Ab 50 ug/ml
Excerpt: as §1

Centromere B [5] = biological target: T3, Centromere B (UniProt P07199 2-599); assay: AtheNA, Ab 50 ug/ml
T3 construct: also called Cent B
T3 sequence (looked up): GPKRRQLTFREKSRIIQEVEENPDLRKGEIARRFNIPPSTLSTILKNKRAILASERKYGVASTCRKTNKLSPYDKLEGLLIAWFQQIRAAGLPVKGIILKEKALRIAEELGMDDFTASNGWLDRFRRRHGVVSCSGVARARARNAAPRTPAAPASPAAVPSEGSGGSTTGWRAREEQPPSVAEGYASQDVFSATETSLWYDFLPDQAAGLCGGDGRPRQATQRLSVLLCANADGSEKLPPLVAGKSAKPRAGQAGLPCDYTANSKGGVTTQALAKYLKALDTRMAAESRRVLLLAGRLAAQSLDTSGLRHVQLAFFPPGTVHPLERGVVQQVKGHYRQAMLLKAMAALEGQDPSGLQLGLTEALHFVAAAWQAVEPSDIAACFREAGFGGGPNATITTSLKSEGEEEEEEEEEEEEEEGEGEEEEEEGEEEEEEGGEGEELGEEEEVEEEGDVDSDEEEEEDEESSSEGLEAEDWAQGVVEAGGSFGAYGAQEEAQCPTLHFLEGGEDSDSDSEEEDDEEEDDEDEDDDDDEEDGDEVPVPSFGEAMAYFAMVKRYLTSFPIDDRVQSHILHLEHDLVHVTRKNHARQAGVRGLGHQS
Excerpt: as §1

SSB [6] = biological target: T4, SSB (UniProt P05455 1-408); assay: AtheNA, Ab 50 ug/ml
T4 sequence (looked up): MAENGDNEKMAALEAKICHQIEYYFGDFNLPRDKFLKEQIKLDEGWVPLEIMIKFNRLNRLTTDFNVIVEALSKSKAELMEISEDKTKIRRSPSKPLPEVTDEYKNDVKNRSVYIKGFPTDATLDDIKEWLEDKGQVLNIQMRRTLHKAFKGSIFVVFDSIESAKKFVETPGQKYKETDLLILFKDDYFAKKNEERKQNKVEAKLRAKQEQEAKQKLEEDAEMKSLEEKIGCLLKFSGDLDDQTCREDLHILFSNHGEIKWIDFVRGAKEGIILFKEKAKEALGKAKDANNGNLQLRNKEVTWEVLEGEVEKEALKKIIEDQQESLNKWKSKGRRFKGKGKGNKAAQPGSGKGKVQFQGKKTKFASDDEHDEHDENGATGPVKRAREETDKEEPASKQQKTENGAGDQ
Excerpt: as §1

RNP (ribonucleoprotein) [7] = assay: AtheNA, Ab 50 ug/ml
Excerpt: as §1

Histones [8] = assay: AtheNA, Ab 50 ug/ml
Excerpt: as §1

Scl-70 [9] = biological target: T1, Scl-70; assay: AtheNA
Excerpt: as §1

Jo-1 [10] = biological target: T2, Jo-1; assay: AtheNA
Excerpt: as §1

SSB [11] = biological target: T4, SSB; assay: AtheNA
Excerpt: as §1

STUB-1 = biological target: T5, STUB-1 (human, UniProt Q9UNE7 1-303); assay: array of human antigens
T5 sequence (looked up): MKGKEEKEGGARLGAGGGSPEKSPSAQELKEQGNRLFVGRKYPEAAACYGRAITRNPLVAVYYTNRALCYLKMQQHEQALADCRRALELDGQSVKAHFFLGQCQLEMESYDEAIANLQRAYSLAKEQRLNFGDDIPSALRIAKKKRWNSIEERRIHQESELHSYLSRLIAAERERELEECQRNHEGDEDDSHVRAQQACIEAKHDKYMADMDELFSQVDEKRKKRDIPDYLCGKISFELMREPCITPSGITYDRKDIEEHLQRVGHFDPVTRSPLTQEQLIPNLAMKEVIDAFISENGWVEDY

Scl-70 [12] = biological target: T1, Scl-70; assay: AtheNA, Ab 25 ug/ml
Excerpt: as §1

Sm (Smith antigen) [13] = assay: AtheNA, Ab 25 ug/ml
Excerpt: as §1

Jo-1 [14] = biological target: T2, Jo-1; assay: AtheNA, Ab 25 ug/ml
Excerpt: as §1

SSA [15] = assay: AtheNA, Ab 25 ug/ml
Excerpt: as §1

Centromere B [16] = biological target: T3, Centromere B; assay: AtheNA, Ab 25 ug/ml
Excerpt: as §1

SSB [17] = biological target: T4, SSB; assay: AtheNA, Ab 25 ug/ml
Excerpt: as §1

RNP (ribonucleoprotein) [18] = assay: AtheNA, Ab 25 ug/ml
Excerpt: as §1

Histones [19] = assay: AtheNA, Ab 25 ug/ml
Excerpt: as §1

Scl-70 [20] = biological target: T1, Scl-70; assay: AtheNA, Ab 6.25 ug/ml
Excerpt: as §1

Sm (Smith antigen) [21] = assay: AtheNA, Ab 6.25 ug/ml
Excerpt: as §1

Jo-1 [22] = biological target: T2, Jo-1; assay: AtheNA, Ab 6.25 ug/ml
Excerpt: as §1

SSA [23] = assay: AtheNA, Ab 6.25 ug/ml
Excerpt: as §1

Centromere B [24] = biological target: T3, Centromere B; assay: AtheNA, Ab 6.25 ug/ml
Excerpt: as §1

SSB [25] = biological target: T4, SSB; assay: AtheNA, Ab 6.25 ug/ml
Excerpt: as §1

RNP (ribonucleoprotein) [26] = assay: AtheNA, Ab 6.25 ug/ml
Excerpt: as §1

Histones [27] = assay: AtheNA, Ab 6.25 ug/ml
Excerpt: as §1

Scl-70 [28] = biological target: T1, Scl-70; assay: AtheNA, Ab 12.5 ug/ml
Excerpt: as §1

Sm (Smith antigen) [29] = assay: AtheNA, Ab 12.5 ug/ml
Excerpt: as §1

Jo-1 [30] = biological target: T2, Jo-1; assay: AtheNA, Ab 12.5 ug/ml
Excerpt: as §1

SSA [31] = assay: AtheNA, Ab 12.5 ug/ml
Excerpt: as §1

Centromere B [32] = biological target: T3, Centromere B; assay: AtheNA, Ab 12.5 ug/ml
Excerpt: as §1

SSB [33] = biological target: T4, SSB; assay: AtheNA, Ab 12.5 ug/ml
Excerpt: as §1

RNP (ribonucleoprotein) [34] = assay: AtheNA, Ab 12.5 ug/ml
Excerpt: as §1

Histones [35] = assay: AtheNA, Ab 12.5 ug/ml
Excerpt: as §1

B1: CH557 (antibody, V domains shown)
VH: QVRLAQYGGGVKRLGATMTLSCVASGYTFNDYYIHWVRQAPGQGFELLGYIDPANGRPDYAGALRERLSFYRDKSMETLYMDLRSLRYDDTAMYYCVRNVGTAGSLLHYDHWGSGSPVIVSS
VL: EIVLTQSPATLSASPGERVTLTCRASRSVRNNVAWYQHKGGQSPRLLIYDASTRAAGVPARFSGSASGTEFTLAISNLESEDFTVYFCLQYNNWWTFGQGTRVDIK
notes: also called CH557_4A/293i
Athena reading (Scl-70 [1]): 6 relative luminescence units | Athena reading (Sm (Smith antigen) [2]): 8 relative luminescence units | Athena reading (Jo-1 [3]): 10 relative luminescence units | Athena reading (SSA [4]): 6 relative luminescence units | Athena reading (Centromere B [5]): 46 relative luminescence units | Athena reading (SSB [6]): 15 relative luminescence units | Athena reading (RNP (ribonucleoprotein) [7]): 10 relative luminescence units | Athena reading (Histones [8]): 16 relative luminescence units | binding result (Scl-70 [9]): no binding (tested: 6.25 ug/ml to 50 ug/ml) | binding result (Jo-1 [10]): no binding (tested: 6.25 ug/ml to 50 ug/ml) | binding result (SSB [11]): no binding (tested: 6.25 ug/ml to 50 ug/ml) | binding result (STUB-1): no binding | Athena reading (Scl-70 [12]): 4 relative luminescence units | Athena reading (Sm (Smith antigen) [13]): 6 relative luminescence units | Athena reading (Jo-1 [14]): 2 relative luminescence units | Athena reading (SSA [15]): 4 relative luminescence units | Athena reading (Centromere B [16]): 25 relative luminescence units | Athena reading (SSB [17]): 12 relative luminescence units | Athena reading (RNP (ribonucleoprotein) [18]): 6 relative luminescence units | Athena reading (Histones [19]): 8 relative luminescence units | Athena reading (Scl-70 [20]): 3 relative luminescence units | Athena reading (Sm (Smith antigen) [21]): 4 relative luminescence units | Athena reading (Jo-1 [22]): 5 relative luminescence units | Athena reading (SSA [23]): 4 relative luminescence units | Athena reading (Centromere B [24]): 11 relative luminescence units | Athena reading (SSB [25]): 5 relative luminescence units | Athena reading (RNP (ribonucleoprotein) [26]): 4 relative luminescence units | Athena reading (Histones [27]): 4 relative luminescence units | Athena reading (Scl-70 [28]): 3 relative luminescence units | Athena reading (Sm (Smith antigen) [29]): 6 relative luminescence units | Athena reading (Jo-1 [30]): 5 relative luminescence units | Athena reading (SSA [31]): 3 relative luminescence units | Athena reading (Centromere B [32]): 16 relative luminescence units | Athena reading (SSB [33]): 9 relative luminescence units | Athena reading (RNP (ribonucleoprotein) [34]): 3 relative luminescence units | Athena reading (Histones [35]): 6 relative luminescence units
